Target: transcriptional activation domain of ATF6α
Assay: affinity purification with mass spectrometry; Mediator enriched from wild-type and MED26 hypomorphic HEK293T cells by binding to the ATF6α transcriptional activation domain (glutathione affinity); semi-quantitative MudPIT

For “mutant MED26 that lacks the NTD (from UniProt O95402 1-600) (natural protein)”, the level in Mediator relative to wild-type MED26 was 30 to 50%.
